One molecule from publication PMC3326539 (The Journal of biological chemistry, 2005) can be followed below.

Data set [1] concerns the target T1, ArnA C-terminal decarboxylase domain (T316M to S660) (E. coli, UniProt P77398 316-660, T316M).
T1 sequence (looked up): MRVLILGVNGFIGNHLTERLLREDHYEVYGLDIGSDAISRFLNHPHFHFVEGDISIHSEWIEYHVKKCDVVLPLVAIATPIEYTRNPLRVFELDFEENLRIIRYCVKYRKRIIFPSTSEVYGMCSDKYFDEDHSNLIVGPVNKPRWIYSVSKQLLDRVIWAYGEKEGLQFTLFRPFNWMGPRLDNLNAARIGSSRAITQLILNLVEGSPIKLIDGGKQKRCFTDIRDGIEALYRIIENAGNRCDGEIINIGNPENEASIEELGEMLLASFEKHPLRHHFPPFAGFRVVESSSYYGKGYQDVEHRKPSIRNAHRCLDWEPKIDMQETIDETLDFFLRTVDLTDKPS
The data set can be described thus: SEC. In general terms: Size exclusion chromatography separates by hydrodynamic size, large species first.

The data set “crystal structure” deals with the molecule itself. The data set can be described thus: crystal structure.

B1: ArnA N-terminal formyltransferase domain (residues M1 to N305) (domain or fragment, E. coli, UniProt P77398 1-305, looked up)
chain: MKTVVFAYHDMGCLGIEALLAAGYEISAIFTHTDNPGEKAFYGSVARLAAERGIPVYAPDNVNHPLWVERIAQLSPDVIFSFYYRHLIYDEILQLAPAGAFNLHGSLLPKYRGRAPLNWVLVNGETETGVTLHRMVKRADAGAIVAQLRIAIAPDDIAITLHHKLCHAARQLLEQTLPAIKHGNILEIAQRENEATCFGRRTPDDSFLEWHKPASVLHNMVRAVADPWPGAFSYVGNQKFTVWSSRVHPHASKAQPGSVISVAPLLIACGDGALEIVTGQAGDGITMQGSQLAQTLGLVQGSRLN
For B1, the Kd (usually the free concentration of one partner at which half of the binding sites on the other are occupied at equilibrium, for simple one-to-one binding) in data set [1] was more than 5 mM. Besides, the binding result in the data set “crystal structure” is reported as “binds”.
